In patent publication US6632633B1, “Process for oxidation of steroids and genetically engineered cells used therein” (Aventis Pharma, S.A., priority 1988, dated 2003):

Tested on: progesterone
Test: In vivo activity of bovine P45017α in whole cells of transformed Kluyveromyces lactis (3H-labelled steroid, RP-HPLC)
Assay type: cell-based
Settings: expressed in K. lactis under the lactase promoter
Protocol: Transformation of K. lactis strain CBS 2360 was performed with pGB 17α-5 as described in Example 14 and in vivo activity was determined in the whole cells of the transformed K. lactis strain. Four independent transformants (17α-3,17α-7,17α-10 and 17α-11) were grown in rich medium (10 g of yeast extracts, 10 g of bactopeptone and 20 g of glucose/liter) for 72 hours to reach an A600 of at least 30. The cells were harvested and resuspended at 1×10^6 cells/ml (A600 =1).
Five ml of culture were incubated in the presence of ^3H-labelled progesterone (20 μM) for 24 hours at 28° C. and then were extracted with dichloromethane. […] The amount of 17α-hydroxyprogesterone was about 40% (about 23% to 58% depending on the transformant) of the substract added (see FIG. 57 corresponding to 17α-3). No androstenedione, which was the product of the C17-20-lyase activity of P45017α, was detected.
^3H-labelled 17α-hydroxyprogesterone was also incubated with the transformants under the conditions described above and after 24 hours of incubation, no androstenedione was detected.

B1: bovine P45017α: bovine cytochrome P450 steroid 17α-hydroxylase expressed in K. lactis under the lactase promoter (protein, UniProt P05185 1-509, looked up)
Steroid …: MWLLLAVFLLTLAYLFWPKTKHSGAKYPRSLPSLPLVGSLPFLPRRGQQHKNFFKLQEKYGPIYSFRLGSKTTVMIGHHQLAREVLLKKGKEFSGRPKVATLDILSDNQKGIAFADHGAHWQLHRKLALNAFALFKDGNLKLEKIINQEANVLCDFLATQHGEAIDLSEPLSLAVTNIISFICFNFSFKNEDPALKAIQNVNDGILEVLSKEVLLDIFPVLKIFPSKAMEKMKGCVQTRNELLNEILEKCQENFSSDSITNLLHILIQAKVNADNNNAGPDQDSKLLSNRHMLATIGDIFGAGVETTTSVIKWIVAYLLHHPSLKKRIQDDIDQIIGFNRTPTISDRNRLVLLEATIREVLRIRPVAPTLIPHKAVIDSSIGDLTIDKGTDVVVNLWALHHSEKEWQHPDLFMPERFLDPTGTQLISPSLSYLPFGAGPRSCVGEMLARQELFLFMSRLLQRFNLEIPDDGKLPSLEGHASLVLQIKPFKVKIEVRQAWKEAQAEGSTP
  C17-20 lyase activity: does not show any activity C17-20 lyase
